± gives the standard deviation of the averaged measurements.

The text below walks through data of the supplement of paper PMC11246515.

The data set is described as follows: total protein half-life in vivo (active degradation + dilution); higher = more stable protein.
Setting [1] is: E. coli NCM3722 delta-clpP delta-lon delta-hslV, growth: N-lim chemostat, doubling time 6 h.
Where [2] appears, read: E. coli NCM3722 delta-smpB, growth: N-lim chemostat, doubling time 6 h.
The mark [3] stands for this setting: wild type E. coli NCM3722, growth: C-lim chemostat, doubling time 3 h.
The mark [4] stands for this setting: wild type E. coli NCM3722, growth: C-lim chemostat, doubling time 6 h.
The mark [5] stands for this setting: wild type E. coli NCM3722, growth: C-lim chemostat, doubling time 12 h.
Setting [6] is: wild type E. coli NCM3722, growth: N-lim chemostat, doubling time 6 h.
Where [7] appears, read: wild type E. coli NCM3722, growth: N-lim chemostat, doubling time 12 h.
[8] abbreviates: wild type E. coli NCM3722, growth: P-lim chemostat, doubling time 6 h.
[9] abbreviates: wild type E. coli NCM3722, growth: P-lim chemostat, doubling time 12 h.
Where [10] appears, read: E. coli NCM3722 delta-clpP, growth: N-lim chemostat, doubling time 6 h.
Setting [11] is: E. coli NCM3722 delta-hslV, growth: N-lim chemostat, doubling time 6 h.
Where [12] appears, read: E. coli NCM3722 delta-lon, growth: N-lim chemostat, doubling time 6 h.

Take “MKVDIDTSDKLYADAWLGFKGTDWKNEINVRDFIQHNYTPYEGDESFLAEATPATTELWEKVMEGIRIENATHAPVDFDTNIATTITAHDAGYINQPLEKIVGLQTDAPLKRALHPFGGINMIKSSFHAYGREMDSEFEYLFTDLRKTHNQGVFDVYSPDMLRCRKSGVLTGLPDGYGRGRIIGDYRRVALYGISYLVRERELQFADLQSRLEKGEDLEATIRLREELAEHRHALLQIQEMAAKYGFDISRPAQNAQEAVQWLYFAYLAAVKSQNGGAMSLGRTASFLDIYIERDFKAGVLNEQQAQELIDHFIMKIRMVRFLRTPEFDSLFSGDPIWATEVIGGMGLDGRTLVTKNSFRYLHTLHTMGPAPEPNLTILWSEELPIAFKKYAAQVSIVTSSLQYENDDLMRTDFNSDDYAIACCVSPMVIGKQMQFFGARANLAKTLLYAINGGVDEKLKIQVGPKTAPLMDDVLDYDKVMDSLDHFMDWLAVQYISALNIIHYMHDKYSYEASLMALHDRDVYRTMACGIAGLSVATDSLSAIKYARVKPIRDENGLAVDFEIDGEYPQYGNNDERVDSIACDLVERFMKKIKALPTYRNAVPTQSILTITSNVVYGQKTGNTPDGRRAGTPFAPGANPMHGRDRKGAVASLTSVAKLPFTYAKDGISYTFSIVPAALGKEDPVRKTNLVGLLDGYFHHEADVEGGQHLNVNVMNREMLLDAIEHPEKYPNLTIRVSGYAVRFNALTREQQQDVISRTFTQAL”: the “total protein half-life in vivo” value by setting is: under setting [1], 4.15 h; under setting [2], 1.87 ± 0.4 h; under setting [3], 2.12 ± 0.2 h; under setting [4], 2.56 ± 0.43 h; under setting [5], 3.63 ± 1.1 h; under setting [6], 1.88 h. The “total protein half-life in vivo” value is 3.13 h under setting [7], 3.24 h under setting [8] and 6.82 ± 0.17 h under setting [9].

On to “MVDKRESYTKEDLLASGRGELFGAKGPQLPAPNMLMMDRVVKMTETGGNFDKGYVEAELDINPDLWFFGCHFIGDPVMPGCLGLDAMWQLVGFYLGWLGGEGKGRALGVGEVKFTGQVLPTAKKVTYRIHFKRIVNRRLIMGLADGEVLVDGRLIYTASDLKVGLFQDTSAF [P0A6Q3]”, for which the “total protein half-life in vivo” value was 4.896 ± 0.032 h under setting [1]; 4.99 ± 0.2 h under setting [10]; 5.5 ± 0.67 h under setting [11]; 5.48 ± 0.64 h under setting [12]; 5.18 ± 0.13 h under setting [2]; 3.03 ± 0.035 h under setting [3]. Besides, the “total protein half-life in vivo” value reads like this: under setting [4], 5.626 ± 0.038 h; under setting [5], 11.5 ± 1.6 h; under setting [6], 5.0372 ± 0.0034 h; under setting [7], 10.1 ± 0.12 h; under setting [8], 5.56 ± 0.57 h; under setting [9], 12.2 ± 0.94 h.

Consider “MIPEKRIIRRIQSGGCAIHCQDCSISQLCIPFTLNEHELDQLDNIIERKKPIQKGQTLFKAGDELKSLYAIRSGTIKSYTITEQGDEQITGFHLAGDLVGFDAIGSGHHPSFAQALETSMVCEIPFETLDDLSGKMPNLRQQMMRLMSGEIKGDQDMILLLSKKNAEERLAAFIYNLSRRFAQRGFSPREFRLTMTRGDIGNYLGLTVETISRLLGRFQKSGMLAVKGKYITIENNDALAQLAGHTRNVA [P0A9E5]”, for which the “total protein half-life in vivo” value is 4.34 ± 0.13 h under setting [1]; 2.99 ± 0.00054 h under setting [10]; 1.2 ± 0.057 h under setting [11]; 1.4 ± 0.028 h under setting [12]; 1.24 ± 0.03 h under setting [2]; 1.23 ± 0.064 h under setting [3]. The “total protein half-life in vivo” value by setting is: under setting [4], 1.708 ± 0.0036 h; under setting [5], 2.2 ± 0.069 h; under setting [6], 1.35 ± 0.091 h; under setting [7], 1.68 ± 0.09 h; under setting [8], 1.65 ± 0.039 h; under setting [9], 2.37 ± 0.86 h.

Consider “MAQRIFTLILLLCSTSVFAGLFDAPGRSQFVPADQAFAFDFQQNQHDLNLTWQIKDGYYLYRKQIRITPEHAKIADVQLPQGVWHEDEFYGKSEIYRDRLTLPVTINQASAGATLTVTYQGCADAGFCYPPETKTVPLSEVVANNAAPQPVSVPQQEQPTAQLPFSALWALLIGIGIAFTPCVLPMYPLISGIVLGGKQRLSTARALLLTFIYVQGMALTYTALGLVVAAAGLQFQAALQHPYVLIGLAIVFTLLAMSMFGLFTLQLPSSLQTRLTLMSNRQQGGSPGGVFVMGAIAGLICSPCTTAPLSAILLYIAQSGNMWLGGGTLYLYALGMGLPLMLITVFGNRLLPKSGPWMEQVKTAFGFVILALPVFLLERVIGDVWGLRLWSALGVAFFGWAFITSLQAKRGWMRIVQIILLAAALVSVRPLQDWAFGATHTAQTQTHLNFTQIKTVDELNQALVEAKGKPVMLDLYADWCVACKEFEKYTFSDPQVQKALADTVLLQANVTANDAQDVALLKHLNVLGLPTILFFDGQGQEHPQARVTGFMDAETFSAHLRDRQP”, for which the “total protein half-life in vivo” value under setting [1] is 6.33 ± 0.17 h; the “total protein half-life in vivo” value under setting [10] was 6.16 ± 0.66 h; the “total protein half-life in vivo” value under setting [11] turned out to be 5.61 ± 0.96 h; the “total protein half-life in vivo” value under setting [12] is 6.37 ± 0.69 h; the “total protein half-life in vivo” value under setting [2] worked out at 5.76 ± 0.13 h; the “total protein half-life in vivo” value under setting [4] was found to be 5.22 ± 0.15 h. In addition, the “total protein half-life in vivo” value runs as follows: under setting [5], 13.2 ± 1 h; under setting [6], 6.08 ± 0.72 h; under setting [7], 11.9 ± 0.37 h; under setting [8], 5.82 ± 0.19 h; under setting [9], 12.35 ± 0.1 h.

Consider “MATYYSNDFRAGLKIMLDGEPYAVEASEFVKPGKGQAFARVKLRRLLTGTRVEKTFKSTDSAEGADVVDMNLTYLYNDGEFWHFMNNETFEQLSADAKAIGDNAKWLLDQAECIVTLWNGQPISVTPPNFVELEIVDTDPGLKGDTAGTGGKPATLSTGAVVKVPLFVQIGEVIKVDTRSGEYVSRVK [P0A6N4]”, for which the “total protein half-life in vivo” value worked out at 4.46 ± 0.85 h under setting [10]; 4.41 ± 0.21 h under setting [11]; 5.35 ± 0.54 h under setting [12]; 4.285 ± 0.022 h under setting [2]; 2.91 ± 0.13 h under setting [3]; 4.775 ± 0.023 h under setting [4]. Also, the “total protein half-life in vivo” value reads like this: under setting [5], 8.29 ± 0.57 h; under setting [6], 4.24 ± 0.074 h; under setting [7], 5.76 ± 0.19 h; under setting [8], 4.32 ± 0.1 h; under setting [9], 8.07 ± 0.47 h.

Take “MDIVFIEQLSVITTIGVYDWEQTIEQKLVFDIEMAWDNRKAAKSDDVADCLSYADIAETVVSHVEGARFALVERVAEEVAELLLARFNSPWVRIKLSKPGAVARAANVGVIIERGNNLKENN [P0AC16]”: the “total protein half-life in vivo” value was 5.71 ± 0.35 h under setting [1]; 5.86 h under setting [10]; 5.4 ± 0.43 h under setting [11]; 5.47 ± 0.74 h under setting [12]; 3.26 ± 0.37 h under setting [3]; 6.02 ± 0.37 h under setting [4]. Moreover, the “total protein half-life in vivo” value under setting [5] was 11.8 ± 1.3 h; the “total protein half-life in vivo” value under setting [6] was 5.39 ± 0.56 h; the “total protein half-life in vivo” value under setting [7] came to 10.7 ± 2.2 h; the “total protein half-life in vivo” value under setting [8] came out at 6.4 ± 0.65 h; the “total protein half-life in vivo” value under setting [9] worked out at 12.39 ± 0.043 h.
